Reference: patent US5374506A, “Amino acid sequence for a functional human interleukin-8 receptor” (The United States of America as represented by the …, priority 1991, dated 1994)

Legend:
human IL-8 receptor [1] = molecular target: T1, human IL-8 receptor (Homo sapiens, UniProt P25025); assay: calcium efflux assay in Xenopus oocytes injected with p2 cRNA; assay type: cell-based; conditions: for calcium mobilization / activation of the IL-8 receptor (result in words): FIG. 2C; for rank order of potency for activating calcium flux: IL-8 receptor expressed by Xenopus oocytes, FIG. 2(C)
T1 construct: expressed in transfected cells; host or cells: Xenopus oocytes injected with p2 cRNA
T1 sequence (P25025 6-360): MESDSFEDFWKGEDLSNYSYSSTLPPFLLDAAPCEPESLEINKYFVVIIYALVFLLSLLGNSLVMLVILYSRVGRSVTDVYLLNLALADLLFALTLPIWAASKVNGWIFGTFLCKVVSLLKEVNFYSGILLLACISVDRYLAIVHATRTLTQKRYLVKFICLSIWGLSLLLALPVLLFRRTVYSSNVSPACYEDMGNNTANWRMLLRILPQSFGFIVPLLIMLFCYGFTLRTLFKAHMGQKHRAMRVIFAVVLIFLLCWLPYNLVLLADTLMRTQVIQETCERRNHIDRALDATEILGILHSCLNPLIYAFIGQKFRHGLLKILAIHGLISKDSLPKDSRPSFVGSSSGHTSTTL
Procedure: (§1) The materials and methods used for the calcium efflux assay were as described in P. M. Murphy, E. K. Gallin, H. L. Tiffany, J. Immunol. […] Oocytes were microinjected with RNA samples in a total volume of 50 nl per oocyte 3 days after harvesting and were then incubated at 20° to 23° C. for 2 to 4 days. Oocytes were then incubated with ^45 Ca^2+ [50 μCi/ml (ICN Biomedicals, Costa Mesa, Calif.)] for 3 hours. After ten washes with medium, individual oocytes were stimulated with ligand in wells of a 96-well tissue culture plate containing 100 μl of medium. Three 100 μl samples of the incubation medium were collected and analyzed by liquid scintillation counting: a) the final 100 μl wash (20 min) before application of ligand; b) fluid containing the stimulus, removed after a 20 min incubation with the oocyte; and c) the oocyte solubilized in SDS (1%) in medium 20 min after stimulation. Data are presented as the mean±standard error of the mean (SEM) of the percent of loaded ^45 Ca^2+ that was released by individual oocytes in response to the stimulus, or [(b-a).div.(b+c)]×100. FMLP and recombinant human C5a was from Sigma, St. Louis, Mo. Recombinant human IL-8 was from Genzyme, Boston, Mass. Recombinant human NAP-2 was from Bachem, Philadelphia, Pa.

[2] = tested on: oocytes injected with 50 ng of HL60 neutrophil RNA; assay: calcium efflux assay in oocytes injected with HL60 neutrophil RNA; assay type: cell-based, Xenopus; conditions: oocytes injected with 50 ng HL60 neutrophil RNA
Procedure: as §1

receptor encoded by p2 = assay: binding of 125I-labeled IL-8 and gro to COS cells transiently transfected with pCDNAI-p2; design: species or system human; conditions: receptor encoded by p2 expressed in COS cells
Procedure: To further support the data obtained from the oocyte studies, the p2 cDNA was also cloned into the vector pCDNAI. When COS cells are transiently transfected with the pCDNAI-p2 construct, specific binding sites were detected with ^125 I-labeled IL-8 and gro protein. In contrast to the ligand binding affinity in the oocyte environment, the affinity for the ligand when the receptor encoded by p2 was expressed in the COS cell was higher. Specifically, the kd for IL-8 was 2 nM and the kd for gro was 1.3 nM.

[3] = molecular target: human interleukin-8 receptor encoded by cDNA clone p2 (human)
human IL-8 receptor [4] = molecular target: T1, human IL-8 receptor; assay: binding of [125I]-IL-8 to oocytes injected with p2 cRNA; conditions: 1 μM competitor
Procedure: Total ( ) and non-specific binding (.largecircle.) was determined by incubating oocytes injected with p2 cRNA with the indicated concentration of radioligand in the absence or presence of unlabeled IL-8 (1 μM), respectively. The data shown are the mean±SEM of triplicate determinations per point and are representative of two separate experiments. Nonspecific binding was subtracted from total binding to determine specific binding (.quadrature.). […] Specific binding of [^125 I]-IL-8 by oocytes injected with water was undetectable.
IL-8 was iodinated to a specific activity of 260 Ci/mmole as described in H. L. Malech, J. P. Gardner, D. F. Heiman, S. A. Rosenzweig, J. Biol. Chem. 260, 2509 (1985). The radioligand was qualified by binding to human neutrophils. Single oocytes were incubated with [^125 I]-IL-8 for 30 min on ice in 10 μl binding buffer (Hanks balanced salt solution with 25 mM HEPES, 1% bovine serum albumin, pH 7.4). Unbound ligand was removed by pelleting the oocyte through 300 μl F50 silicone fluid (General Electric, Waterford, N.Y.). The tube was quick-frozen and gamma emissions from the amputated tips were counted.

recombinant human C5a = recombinant human C5a (human, UniProt P01031); assay: displacement of [125I]-IL-8 from Xenopus oocytes injected with p2 cRNA
[5] = molecular target: gro (melanoma growth-stimulatory activity) (Homo sapiens (Human), UniProt P09341, 125I label in the COS cell binding experiment); assay: binding of 125I-labeled gro to COS cells transiently transfected with pCDNAI-p2
recombinant human IL-8 = recombinant human IL-8 (human, UniProt P10145, 125I label in the binding experiments); assay: binding of 125I-labeled IL-8 to COS cells transiently transfected with pCDNAI-p2
[6] = Xenopus oocytes injected with p2 cRNA

With `CSCC[C@H](NC=O)C(=O)N[C@@H](CC(C)C)C(=O)N[C@@H](Cc1ccccc1)C(=O)O` [FMLP, N-formyl methionyl-leucylphenylalanine, reference compound] the “calcium mobilization / activation of the IL-8 receptor (result in words)” value (human IL-8 receptor [1]; [6]) was “did not respond” and the “calcium efflux response (percent of loaded 45Ca2+ released)” value ([2]; 1 μM ligand) was 51±3%.

“IL-8: inflammatory cytokine, potent chemoattractant for neutrophils; recombinant human IL-8 from Genzyme” was tested, and the “rank order of potency for activating calcium flux” value (human IL-8 receptor [1]) was “IL-8>gro>NAP-2”, the EC50 (human IL-8 receptor [1]; Xenopus oocytes injected with p2 cRNA, FIG. 2A, read-out: EC50 of intracellular calcium mobilization) was 20 nM and the “EC50 in oocytes relative to value reported for human neutrophils” value (human IL-8 receptor [1]; oocyte EC50 higher than that reported for human neutrophils with recombinant human IL-8) was “approximately 20 fold”. It also gave a Kd (receptor encoded by p2) of 2 nM.

In the case of “gro: member of the macrophage inflammatory protein-2 (MIP-2) family of cytokines, structurally related to IL-8”, the “rank order of potency for activating calcium flux” value (human IL-8 receptor [1]) is reported as “IL-8>gro>NAP-2” and the Kd (receptor encoded by p2) is reported as 1.3 nM.

“recombinant human IL-8 (from UniProt P10145) (ligand)” gave a calcium efflux (mobilization of intracellular calcium), EC50 [3] of 20 nM.

B1: NAP-2: member of the MIP-2 family of cytokines; recombinant human NAP-2 from Bachem (protein)
chain: AELRCMCIKTTSGIHPKNIQSLEVIGKGTHCNQVEVIATLKDGRKICLDPDAPRIKKIVQKKLAGDESAD
In the case of B1, the “rank order of potency for activating calcium flux” value (human IL-8 receptor [1]) is reported as “IL-8>gro>NAP-2”.

B2: C5a: structurally unrelated chemoattractant, 74 amino acids; recombinant human C5a from Sigma (protein)
chain: TLQKKIEEIAAKYKHSVVKKCCYDGACVNNDETCEQRAARISLGPRCIKAFTECCVVASQLRANISHKDMQLGR
B2 was tested, and the “calcium mobilization / activation of the IL-8 receptor (result in words)” value (human IL-8 receptor [1]; [6]) was “did not activate”, the “displacement of [125I]-IL-8” value (human IL-8 receptor [4]) was “did not displace” and the “calcium efflux response (percent of loaded 45Ca2+ released)” value ([2]; 500 nM ligand) was 16±5%.

B3: human interleukin-8 receptor encoded by cDNA clone p2 (receptor)
chain: T1 sequence (P25025 6-360)
With B3 the binding result (recombinant human C5a) was “no binding (tested: 1 µM)”, the Kd [5] was 1.3 nM and the Kd (recombinant human IL-8) was 2 nM.
